Where two headings read alike, the source gives them in different places.

Experiment in all cases: cross-linking
Data set [1] deals with A. aegypti GPA2-FLAG (Aedes aegypti) (UniProt C6SUP2).
Data set [2] shares this target. This is another data set of the same source.
The target in data set [3] is A. aegypti GPA2-His (Aedes aegypti) (UniProt C6SUP2).
Data set [4] deals with the molecule itself.
Data set [5] concerns the molecule itself. The source holds these as a separate data set.

As to “A. aegypti GPA2-FLAG (from UniProt C6SUP2 1-120) (natural protein)”, the stoichiometry N in data set [1] and in data set [2] was 2 throughout. Turning to “A. aegypti GPA2-His (from UniProt C6SUP2 1-120) (natural protein)”, the stoichiometry N – broadly, the number of molecules, sites or subunits per partner or assembly – in data set [3] was 2.

B1: H. sapiens GPA2-FLAG (natural protein, UniProt Q96T91 24-129, looked up)
chain: QEAVIPGCHLHPFNVTVRSDRQGTCQGSHVAQACVGHCESSAFPSRYSVLVASGYRHNITSVSQCCTISGLKKVKVQLQCVGSRREELEIFTARACQCDMCRLSRY
For B1, in the data set “cross-linking [4]”, the “stoichiometry N” value amounted to 2.

B2: H. sapiens GPB5-His (natural protein, UniProt Q86YW7 25-130, looked up)
chain: ASSGNLRTFVGCAVREFTFLAKKPGCRGLRITTDACWGRCETWEKPILEPPYIEAHHRVCTYNETKQVTVKLPNCAPGVDPFYTYPVAIRCDCGACSTATTECETI
For the molecule B2, the “stoichiometry N” value in “cross-linking [4]” amounted to 2.

B3: A. aegypti GPB5-His (natural protein, Aedes aegypti, UniProt C6SUR0 1-162, looked up)
chain: VEDSLFISGFEKKAPMLGCHKRVFTYRISQADSKGRECWDHVSVWSCHGRCDSNEISDWRFPYKRSHHPVCMHAGRTRSVATLRHCHPEADAEAKLYEYMEPKSCSCQTCTSMDTSCEGPKQLSTDAATKIFQIDDEEIESEYA
For the molecule B3, in “cross-linking [5]”, the “stoichiometry N” value was 2.

(Values after doi:10.1101/694653 (bioRxiv, 2019).)
